Earlier results on one sequence are cited in publication PMC12564422.

This data set addresses EGFR (epidermal growth factor receptor) (UniProt P00533). Briefly: cited. Conditions: 3'-thiol; about 50 nm AuNPs, resuspended in water; aptamer M and Atto 1.2e-7 M, EGFR 880 pM, 1 h incubation; Tris-EDTA buffer listed among materials; salt, pH and ….

As a reminder, the Kd is the equilibrium constant for the complex coming apart. Take “GGACGGATTTAATCGCCGTAGAAAAGCATGTCAAAGCCGGAACCGTCC [aptamer M (EGFR-specific)]”: the dissociation constant (Kd) is 2.4 nM.
